# Data reported in article doi:10.1101/2024.10.11.617910.
# B1: Lecanemab (antibody, V domains shown)
# VH: EVQLVESGGGLVQPGGSLRLSCSASGFTFSSFGMHWVRQAPGKGLEWVAYISSGSSTIYYGDTVKGRFTISRDNAKNSLFLQMSSLRAEDTAVYYCAREGGYYYGRSYYTMDYWGQGTTVTVSS
# VL: DVVMTQSPLSLPVTPGAPASISCRSSQSIVHSNGNTYLEWYLQKPGQSPKLLIYKVSNRFSGVPDRFSGSGSGTDFTLRISRVEAEDVGIYYCFQGSHVPPTFGPGTKLEIK
# Target: pyroglutamate beta-amyloid peptide (pGlu3-Aβ)
# Assay: SiMoA
binder,measurement,value
B1,limit of detection (LoD),4 pM
